Experimental data published in publication PMC4678816, “Structural basis for suppression of hypernegative DNA supercoiling by E. coli topoisomerase I”.

B1: DNA bubble substrate (G-strand/T-strand) (mixed)
DNA 1: GCCCTGAAAGATTATGGAATGCGATTAGTTCAAGAGCGTGAGCG
DNA 2: CGCTCACGCTCTTGAAGTAGAGGAAGGACATAATCTTTCAGGGC
B2: O29-O20 partial duplex (mixed)
DNA 1: GCTAAACCTGAAAGATTATGCGATTTGGG
DNA 2: CATAATCTTTCAGGTTTAGC

How the values were obtained:
EcTOP1-G116S = EcTOP1-G116S (Escherichia coli, UniProt P06612 1-865, G116S); assay: DNase I footprinting; 5 mM MgCl2; partial protection of double-stranded region, both strands; Footprinting: 40 mM Tris-HCl (pH not stated), 0.1 mg/ml BSA, 5 mM MgCl2, 37 C, 1 h; crystals: 0.125 M ammonium sulfate, 0.1 M MES pH 6.0, 1 mM ZnSO4, 19% PEG MME 5000, 24 C; conditions: protein: recombinant; label: 5' 32P on G-strand or T-strand; duplex with 12-nt unpaired bubble
[1] = molecular target: E. coli topoisomerase I (EcTOP1) (Escherichia coli, UniProt P06612 1-865); assay: X-ray crystallography; 1 mM ZnSO4, pH 6.0; 2.9 A; ssDNA 3' end bound by D5, D7, D8, D9 and R189; Footprinting: 40 mM Tris-HCl (pH not stated), 0.1 mg/ml BSA, 5 mM MgCl2, 37 C, 1 h; crystals: 0.125 M ammonium sulfate, 0.1 M MES pH 6.0, 1 mM ZnSO4, 19% PEG MME 5000, 24 C; conditions: protein: recombinant; tags: N-terminal His6 removed with TEV protease; label: none in crystal; 3' overhang 9 nt on O29; 20 bp duplex

Binder	binding result (EcTOP1-G116S)	binding result [1]
B1	binds	
B2		binds
